What was measured:
Experiment in all cases: biopanning and SPR screening
human TGFβ1 = target: T1, human TGFβ1 (human, UniProt P01137 279-390)
T1 construct: also called hTGFβ1; hTGFβ-1

human TGFβ2 = target: T2, human TGFβ2 (human, UniProt P61812 303-414)
T2 construct: also called hTGFβ2
T2 sequence (looked up): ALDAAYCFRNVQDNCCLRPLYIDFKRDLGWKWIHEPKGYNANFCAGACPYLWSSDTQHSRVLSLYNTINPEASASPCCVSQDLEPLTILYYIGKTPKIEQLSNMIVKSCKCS

human TGFβ3 = target: T3, human TGFβ3 (human, UniProt P10600 301-412)
T3 construct: also called hTGFβ3
T3 sequence (looked up): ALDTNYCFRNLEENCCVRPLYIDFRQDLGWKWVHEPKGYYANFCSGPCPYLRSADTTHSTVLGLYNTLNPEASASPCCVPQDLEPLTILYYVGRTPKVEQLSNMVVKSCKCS

mouse TGFβ1 = target: T4, mouse TGFβ1 (mouse, UniProt P04202 279-390)
T4 construct: also called mTGFβ1; mTGFβ-1
T4 sequence (P04202 279-390 limits assumed): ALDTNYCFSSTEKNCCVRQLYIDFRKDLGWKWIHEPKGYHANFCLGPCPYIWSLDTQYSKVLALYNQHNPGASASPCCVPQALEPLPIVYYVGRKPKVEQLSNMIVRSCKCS

Measured: binding result

T1 sequence (P01137 279-390 limits assumed): as the sequence (P04202 279-390 limits assumed) above, with S75A counted along it

B1: 4H7 (scFv)
scFv: QVQLVESGGGLVKPGRSLRLSCAASGFTFSSYAMHWVRQAPGKGLEWVAVISYDGSNKYYADSVKGRFTISRDNSKNTLYLQMNSLRAEDTAVYYCAKEMRYCSGGSCYPYAYYMDVWGQGTTVTVSSASTGGGGSGGGGSGGGGSVHSSSELTQDPAVSVALGQTVRITCQGDSLRSYYASWYQQKPGQAPVLVIYGKNNRPSGIPDRFSGSSSGNTASLTITGAQAEDEADYYCNSRDSSGNLVVFGGGTKLTVLGLGG
notes: also called anti-TGFβ-1 scFv 4H7
binds: all assays above
